From paper PMC10746679, “Mutations F352A and Y528A in human HSP90α reduce fibronectin association and fibrillogenesis in cell-derived matrices” (Cell Stress & Chaperones, 2023) come the findings set out here.

For this experiment, the target named is Full-length fibronectin (UniProt P02751 32-2477). In words: ELISA; solid-phase binding assay; FN-FL or FN70 coated on high-binding plates (25 μg/ml by the legend), blocked with 3% BSA in Buffer A; wild type or mutant His-HSP90α at varying concentrations added overnight at 4 °C; detected with anti-HSP90α antibody, HRP secondary, absorbance 450 nm. To be noted: both partners purified.
Sequence of Full-length fibronectin (P02751 other isoform, or with tags, fused parts or gaps, chain 1 of 2): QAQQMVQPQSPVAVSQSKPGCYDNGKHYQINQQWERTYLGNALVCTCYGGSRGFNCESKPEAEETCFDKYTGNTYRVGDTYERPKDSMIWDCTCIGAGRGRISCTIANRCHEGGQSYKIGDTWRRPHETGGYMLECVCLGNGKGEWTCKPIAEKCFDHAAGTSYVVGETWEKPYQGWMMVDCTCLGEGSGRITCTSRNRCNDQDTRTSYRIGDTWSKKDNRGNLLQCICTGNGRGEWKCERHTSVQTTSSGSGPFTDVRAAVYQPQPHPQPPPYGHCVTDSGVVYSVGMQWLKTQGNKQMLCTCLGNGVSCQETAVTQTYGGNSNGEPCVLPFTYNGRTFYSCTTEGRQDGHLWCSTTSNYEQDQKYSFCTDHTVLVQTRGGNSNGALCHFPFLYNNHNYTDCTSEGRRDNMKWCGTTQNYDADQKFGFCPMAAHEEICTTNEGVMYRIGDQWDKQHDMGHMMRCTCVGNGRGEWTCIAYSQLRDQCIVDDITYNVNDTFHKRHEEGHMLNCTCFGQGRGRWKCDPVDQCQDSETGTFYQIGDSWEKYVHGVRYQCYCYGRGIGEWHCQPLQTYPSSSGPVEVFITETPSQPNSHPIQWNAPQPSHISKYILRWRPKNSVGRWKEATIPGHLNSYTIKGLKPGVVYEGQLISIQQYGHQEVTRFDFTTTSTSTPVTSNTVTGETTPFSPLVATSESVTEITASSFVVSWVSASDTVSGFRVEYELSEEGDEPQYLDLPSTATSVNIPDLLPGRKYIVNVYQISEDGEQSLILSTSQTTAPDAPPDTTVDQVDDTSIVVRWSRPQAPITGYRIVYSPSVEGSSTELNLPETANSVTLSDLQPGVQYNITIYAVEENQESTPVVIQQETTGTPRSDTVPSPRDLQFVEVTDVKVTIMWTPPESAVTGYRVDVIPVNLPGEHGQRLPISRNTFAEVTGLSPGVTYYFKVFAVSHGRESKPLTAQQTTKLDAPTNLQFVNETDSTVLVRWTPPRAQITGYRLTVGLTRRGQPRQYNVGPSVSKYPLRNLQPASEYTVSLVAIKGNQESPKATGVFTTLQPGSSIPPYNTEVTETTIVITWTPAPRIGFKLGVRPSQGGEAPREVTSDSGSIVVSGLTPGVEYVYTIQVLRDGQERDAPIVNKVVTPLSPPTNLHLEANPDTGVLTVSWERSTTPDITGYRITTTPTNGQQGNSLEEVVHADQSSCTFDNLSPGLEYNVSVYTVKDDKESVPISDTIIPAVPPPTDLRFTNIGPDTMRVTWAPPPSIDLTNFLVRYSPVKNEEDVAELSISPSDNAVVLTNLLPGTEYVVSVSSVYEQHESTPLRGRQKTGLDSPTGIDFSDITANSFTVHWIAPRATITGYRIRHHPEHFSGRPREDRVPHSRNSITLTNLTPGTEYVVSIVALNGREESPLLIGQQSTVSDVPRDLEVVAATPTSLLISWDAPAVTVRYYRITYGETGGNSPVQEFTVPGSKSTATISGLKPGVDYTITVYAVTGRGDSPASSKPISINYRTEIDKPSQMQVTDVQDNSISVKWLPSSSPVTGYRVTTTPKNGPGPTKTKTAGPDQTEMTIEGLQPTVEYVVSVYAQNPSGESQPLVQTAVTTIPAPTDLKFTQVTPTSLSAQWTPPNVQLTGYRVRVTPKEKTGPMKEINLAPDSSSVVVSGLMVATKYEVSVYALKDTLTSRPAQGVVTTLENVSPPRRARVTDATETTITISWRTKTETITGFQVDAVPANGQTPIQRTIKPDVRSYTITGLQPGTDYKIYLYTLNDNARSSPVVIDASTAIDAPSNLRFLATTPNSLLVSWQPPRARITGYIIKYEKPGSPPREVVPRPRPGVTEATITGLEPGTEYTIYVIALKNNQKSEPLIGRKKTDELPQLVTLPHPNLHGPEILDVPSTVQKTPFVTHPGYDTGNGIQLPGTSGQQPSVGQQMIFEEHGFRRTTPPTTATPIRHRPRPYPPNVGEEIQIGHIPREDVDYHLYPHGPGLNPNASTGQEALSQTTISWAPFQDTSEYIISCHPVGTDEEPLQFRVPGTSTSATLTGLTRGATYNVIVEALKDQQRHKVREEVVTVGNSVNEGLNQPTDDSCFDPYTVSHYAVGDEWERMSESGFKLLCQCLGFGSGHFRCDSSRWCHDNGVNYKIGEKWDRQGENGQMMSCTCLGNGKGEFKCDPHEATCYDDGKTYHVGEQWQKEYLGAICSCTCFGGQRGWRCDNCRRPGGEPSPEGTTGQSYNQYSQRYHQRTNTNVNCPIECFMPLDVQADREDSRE
Sequence of Full-length fibronectin (P02751 other isoform, or with tags, fused parts or gaps, chain 2 of 2): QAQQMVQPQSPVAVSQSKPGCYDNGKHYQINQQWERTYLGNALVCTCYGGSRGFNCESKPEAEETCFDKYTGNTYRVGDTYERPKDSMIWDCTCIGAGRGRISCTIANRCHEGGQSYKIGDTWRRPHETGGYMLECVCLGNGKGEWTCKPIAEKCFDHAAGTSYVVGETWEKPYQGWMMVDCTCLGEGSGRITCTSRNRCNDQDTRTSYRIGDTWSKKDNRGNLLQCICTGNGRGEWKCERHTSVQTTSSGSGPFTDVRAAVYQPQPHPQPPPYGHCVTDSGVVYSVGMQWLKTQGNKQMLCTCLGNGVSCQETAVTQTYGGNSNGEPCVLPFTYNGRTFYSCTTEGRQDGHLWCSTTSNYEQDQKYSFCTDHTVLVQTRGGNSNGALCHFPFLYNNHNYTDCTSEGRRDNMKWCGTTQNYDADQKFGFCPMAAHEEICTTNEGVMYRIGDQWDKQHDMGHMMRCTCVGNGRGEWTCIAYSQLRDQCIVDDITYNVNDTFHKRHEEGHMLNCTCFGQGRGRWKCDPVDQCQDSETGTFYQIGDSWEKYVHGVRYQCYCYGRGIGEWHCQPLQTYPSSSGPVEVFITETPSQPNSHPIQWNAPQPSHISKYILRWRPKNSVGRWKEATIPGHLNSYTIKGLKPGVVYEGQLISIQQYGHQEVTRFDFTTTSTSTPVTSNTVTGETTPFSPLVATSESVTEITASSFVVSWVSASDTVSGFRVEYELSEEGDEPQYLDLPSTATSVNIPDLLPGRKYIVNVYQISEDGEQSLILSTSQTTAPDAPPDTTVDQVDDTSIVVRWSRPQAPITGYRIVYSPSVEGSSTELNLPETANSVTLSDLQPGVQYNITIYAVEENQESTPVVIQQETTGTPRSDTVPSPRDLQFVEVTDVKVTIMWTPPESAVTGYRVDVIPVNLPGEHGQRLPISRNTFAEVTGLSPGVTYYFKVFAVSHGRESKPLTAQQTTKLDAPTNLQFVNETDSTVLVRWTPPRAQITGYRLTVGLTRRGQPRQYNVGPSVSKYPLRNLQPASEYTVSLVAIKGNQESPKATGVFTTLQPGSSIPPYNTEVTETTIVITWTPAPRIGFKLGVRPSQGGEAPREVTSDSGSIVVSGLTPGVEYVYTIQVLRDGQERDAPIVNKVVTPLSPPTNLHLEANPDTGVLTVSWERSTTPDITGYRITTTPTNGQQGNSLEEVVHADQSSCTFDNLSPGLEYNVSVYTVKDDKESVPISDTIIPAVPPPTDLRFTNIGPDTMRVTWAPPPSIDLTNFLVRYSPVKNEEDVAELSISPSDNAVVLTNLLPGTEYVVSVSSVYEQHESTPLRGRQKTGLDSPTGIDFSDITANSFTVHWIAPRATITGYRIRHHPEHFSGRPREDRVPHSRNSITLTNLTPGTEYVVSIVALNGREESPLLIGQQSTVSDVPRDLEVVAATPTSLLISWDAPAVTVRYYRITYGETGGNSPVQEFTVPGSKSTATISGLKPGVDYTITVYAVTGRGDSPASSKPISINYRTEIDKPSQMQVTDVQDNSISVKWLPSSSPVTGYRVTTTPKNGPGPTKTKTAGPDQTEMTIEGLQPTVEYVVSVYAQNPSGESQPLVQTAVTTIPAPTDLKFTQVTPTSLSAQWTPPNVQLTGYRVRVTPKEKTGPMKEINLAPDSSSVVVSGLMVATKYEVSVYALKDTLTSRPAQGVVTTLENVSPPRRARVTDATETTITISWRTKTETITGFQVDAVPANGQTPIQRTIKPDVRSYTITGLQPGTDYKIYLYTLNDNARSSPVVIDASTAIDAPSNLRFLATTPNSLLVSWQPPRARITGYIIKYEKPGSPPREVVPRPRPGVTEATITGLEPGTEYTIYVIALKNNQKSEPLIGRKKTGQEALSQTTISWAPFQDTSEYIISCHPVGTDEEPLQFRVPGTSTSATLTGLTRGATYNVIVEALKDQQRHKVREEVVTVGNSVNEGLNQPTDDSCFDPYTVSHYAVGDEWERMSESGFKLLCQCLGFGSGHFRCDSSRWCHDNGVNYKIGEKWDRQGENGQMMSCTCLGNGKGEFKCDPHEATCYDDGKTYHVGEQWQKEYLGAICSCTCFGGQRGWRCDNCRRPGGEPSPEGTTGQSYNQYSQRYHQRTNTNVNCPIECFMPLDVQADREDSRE

B1: His-HSP90α-R620A (natural protein)
chain: not shown
notes: Heat shock protein HSP 90-alpha, human, point mutant of the full-length His-HSP90α
For B1, the “percent reduction in binding against wild type His-HSP90α” value (from here on “percent reduction in binding”) was roughly 25%.

B2: His-HSP90α-H450A (natural protein)
chain: not shown
notes: as for B1
On to B2, for which the “percent reduction in binding” value is roughly 25%.

B3: His-HSP90α-Y528A (natural protein)
chain: not shown
notes: as for B1
For the molecule B3, the “percent reduction in binding” value was roughly 25%.

B4: His-HSP90α-F352A (natural protein)
chain: not shown
notes: as for B1
Take B4: the “percent reduction in binding” value was roughly 40%.

B5: His-HSP90α-E353A (natural protein)
chain: not shown
notes: as for B1
Turning to B5, the “percent reduction in binding” value was roughly 25%.
